Source: paper PMC8079451, “Phosphopeptide interactions of the Nbs1 N-terminal FHA-BRCT1/2 domains” (Scientific Reports, 2021)
Numbering of substitutions follows the chain as printed. Square brackets hold non-standard residues; d marks the D form. Primed or numbered codes have the meaning given here. Ends that are not written are not given here. FITC′ = fluorescein isothiocyanate label; pT = C[C@@H](OP(=O)(O)O)[C@H](N)C(=O)O

Legend:
Test in all cases: fluorescence polarisation; 100 nM FITC-labeled phosphopeptide with increasing hsNbs1(384); room temperature, 15 min incubation; 25 mM HEPES pH 7.4, 150 mM NaCl, 1 mM EDTA, 2 mM DTT, 0.05% Tween20, 0.1% BSA; one-site model
Conditions in all cases: both partners purified
hsNbs1(384) R43A = molecular target: T1, hsNbs1(384) R43A (human, UniProt O60934 1-384, R43A)
T1 construct: source: E. coli BL21(DE3) pLacI, purified as the wild type
T1 sequence (looked up): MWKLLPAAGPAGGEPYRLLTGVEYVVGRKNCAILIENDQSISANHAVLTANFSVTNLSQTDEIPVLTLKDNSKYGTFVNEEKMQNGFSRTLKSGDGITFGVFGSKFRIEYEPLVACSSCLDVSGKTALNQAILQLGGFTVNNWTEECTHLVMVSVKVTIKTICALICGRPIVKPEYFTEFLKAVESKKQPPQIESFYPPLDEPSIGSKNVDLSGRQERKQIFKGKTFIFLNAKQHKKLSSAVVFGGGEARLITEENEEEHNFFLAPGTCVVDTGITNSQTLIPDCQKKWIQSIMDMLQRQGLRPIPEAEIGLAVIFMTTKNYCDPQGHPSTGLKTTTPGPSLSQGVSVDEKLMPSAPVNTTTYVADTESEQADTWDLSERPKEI

hsNbs1(384) K125A = molecular target: T2, hsNbs1(384) K125A (human, UniProt O60934 1-384, K125A)
T2 construct: source: E. coli BL21(DE3) pLacI, purified as the wild type
T2 sequence (looked up): T1 sequence (looked up) with A43R, K125A

hsNbs1(384) S118G = molecular target: T3, hsNbs1(384) S118G (human, UniProt O60934 1-384, S118G)
T3 construct: source: E. coli BL21(DE3) pLacI, purified as the wild type
T3 sequence (looked up): T1 sequence (looked up) with A43R, S118G

Binder: {FITC′}-GGRYIPPN[pT]PENFWEVGFPEEQ [hsCtIP phosphopeptide R841YIPPNpTPENFWEVGFPEEQ860 with N-terminal FITC-Gly-Gly]
- Kd (hsNbs1(384) R43A): 29.2 µM
- Kd (hsNbs1(384) K125A): 39.6 µM
- Kd (hsNbs1(384) S118G): 149 µM
